B1: Receptor-type tyrosine-protein phosphatase T (Homo sapiens), O14522-1 (parent)
chain: MASLAALALSLLLRLQLPPLPGARAQSAAGGCSFDEHYSNCGYSVALGTNGFTWEQINTWEKPMLDQAVPTGSFMMVNSSGRASGQKAHLLLPTLKENDTHCIDFHYYFSSRDRSSPGALNVYVKVNGGPQGNPVWNVSGVVTEGWVKAELAISTFWPHFYQVIFESVSLKGHPGYIAVDEVRVLAHPCRKAPHFLRLQNVEVNVGQNATFQCIAGGKWSQHDKLWLQQWNGRDTALMVTRVVNHRRFSATVSVADTAQRSVSKYRCVIRSDGGSGVSNYAELIVKEPPTPIAPPELLAVGATYLWIKPNANSIIGDGPIILKEVEYRTTTGTWAETHIVDSPNYKLWHLDPDVEYEIRVLLTRPGEGGTGPPGPPLTTRTKCADPVHGPQNVEIVDIRARQLTLQWEPFGYAVTRCHSYNLTVQYQYVFNQQQYEAEEVIQTSSHYTLRGLRPFMTIRLRLLLSNPEGRMESEELVVQTEEDVPGAVPLESIQGGPFEEKIYIQWKPPNETNGVITLYEINYKAVGSLDPSADLSSQRGKVFKLRNETHHLFVGLYPGTTYSFTIKASTAKGFGPPVTTRIATKISAPSMPEYDTDTPLNETDTTITVMLKPAQSRGAPVSVYQLVVKEERLQKSRRAADIIECFSVPVSYRNASSLDSLHYFAAELKPANLPVTQPFTVGDNKTYNGYWNPPLSPLKSYSIYFQALSKANGETKINCVRLATKAPMGSAQVTPGTPLCLLTTGASTQNSNTVEPEKQVDNTVKMAGVIAGLLMFIIILLGVMLTIKRRRNAYSYSYYLSQRKLAKKQKETQSGAQREMGPVASADKPTTKLSASRNDEGFSSSSQDVNGFTDGSRGELSQPTLTIQTHPYRTCDPVEMSYPRDQFQPAIRVADLLQHITQMKRGQGYGFKEEYEALPEGQTASWDTAKEDENRNKNRYGNIISYDHSRVRLLVLDGDPHSDYINANYIDGYHRPRHYIATQGPMQETVKDFWRMIWQENSASIVMVTNLVEVGRVKCVRYWPDDTEVYGDIKVTLIETEPLAEYVIRTFTVQKKGYHEIRELRLFHFTSWPDHGVPCYATGLLGFVRQVKFLNPPEAGPIVVHCSAGAGRTGCFIAIDTMLDMAENEGVVDIFNCVRELRAQRVNLVQTEEQYVFVHDAILEACLCGNTAIPVCEFRSLYYNISRLDPQTNSSQIKDEFQTLNIVTPRVRPEDCSIGLLPRNHDKNRSMDVLPLDRCLPFLISVDGESSNYINAALMDSHKQPAAFVVTQHPLPNTVADFWRLVFDYNCSSVVMLNEMDTAQFCMQYWPEKTSGCYGPIQVEFVSADIDEDIIHRIFRICNMARPQDGYRIVQHLQYIGWPAYRDTPPSKRSLLKVVRRLEKWQEQYDGREGRTVVHCLNGGGRSGTFCAICSVCEMIQQQNIIDVFHIVKTLRNNKSNMVETLEQYKFVYEVALEYLSSF

Variants of: B1
Conditions: with stat3_human STAT3, P40763
Sequence of stat3_human STAT3, P40763 (P40763 whole entry): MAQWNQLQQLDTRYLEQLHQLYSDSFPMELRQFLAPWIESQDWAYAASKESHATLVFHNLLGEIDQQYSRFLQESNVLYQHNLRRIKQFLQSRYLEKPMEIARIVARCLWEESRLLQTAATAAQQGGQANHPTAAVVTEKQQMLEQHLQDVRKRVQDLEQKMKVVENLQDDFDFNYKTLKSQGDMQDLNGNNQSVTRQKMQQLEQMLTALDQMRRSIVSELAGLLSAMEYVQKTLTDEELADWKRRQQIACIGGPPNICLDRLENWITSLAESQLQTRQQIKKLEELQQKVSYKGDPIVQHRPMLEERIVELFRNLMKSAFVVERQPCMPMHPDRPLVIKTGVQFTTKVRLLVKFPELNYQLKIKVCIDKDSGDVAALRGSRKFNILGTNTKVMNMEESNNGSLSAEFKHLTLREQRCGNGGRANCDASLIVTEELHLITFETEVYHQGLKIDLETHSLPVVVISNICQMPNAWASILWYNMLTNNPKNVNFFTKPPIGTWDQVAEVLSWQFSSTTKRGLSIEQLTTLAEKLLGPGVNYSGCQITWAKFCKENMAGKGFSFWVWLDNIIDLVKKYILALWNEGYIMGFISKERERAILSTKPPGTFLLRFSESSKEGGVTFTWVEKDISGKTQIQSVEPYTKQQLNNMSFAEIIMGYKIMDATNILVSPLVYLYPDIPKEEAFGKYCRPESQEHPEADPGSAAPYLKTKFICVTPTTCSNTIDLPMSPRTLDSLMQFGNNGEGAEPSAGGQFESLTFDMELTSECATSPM

Variant	effect of a mutation on the interaction
D1074A;C1106S	increasing interaction strength
D1074A	increasing interaction strength
